Where two headings read alike, the source gives them in different places. Bridge positions count the residues as written; N and C are the ends. Square brackets hold non-standard residues; d marks the D form. Ends that are not written are not given here. * marks the point of attachment. FITC = O=C1OC2(c3ccc(O)cc3Oc3cc(O)ccc32)c2ccc(NC(=S)*)cc21; Phe(4-NO2) = N[C@@H](Cc1ccc([N+](=O)[O-])cc1)C(=O)O; Gla = N[C@@H](CC(C(=O)O)C(=O)O)C(=O)O; Dap = NC[C@H](N)C(=O)O; AEEA = NCCOCCOCC(=O)O
B1: peptide 4 (native RioK1 PBM sequence, unlabeled reference) (peptide)
chain: SRVVPGQFDDADSSD
modifications: unlabeled; taken as the same span as the printed RioK1 tracer sequence (7BOC entity 2); end groups are in the figure/SI

How the values were obtained:
Assay in all cases: FP
[1] = molecular target: T1, PRMT5-MEP50 complex (full-length, purified) (human | , UniProt O14744 1-637; Q9BQA1 1-342)
[2] = molecular target: T1, PRMT5-MEP50 complex (full-length, …); remark: listed apart in the source
[3] = molecular target: T1, PRMT5-MEP50 complex (full-length, …); remark: listed apart in the source

T1 sequence (O14744 whole entry, chain 1 of 2): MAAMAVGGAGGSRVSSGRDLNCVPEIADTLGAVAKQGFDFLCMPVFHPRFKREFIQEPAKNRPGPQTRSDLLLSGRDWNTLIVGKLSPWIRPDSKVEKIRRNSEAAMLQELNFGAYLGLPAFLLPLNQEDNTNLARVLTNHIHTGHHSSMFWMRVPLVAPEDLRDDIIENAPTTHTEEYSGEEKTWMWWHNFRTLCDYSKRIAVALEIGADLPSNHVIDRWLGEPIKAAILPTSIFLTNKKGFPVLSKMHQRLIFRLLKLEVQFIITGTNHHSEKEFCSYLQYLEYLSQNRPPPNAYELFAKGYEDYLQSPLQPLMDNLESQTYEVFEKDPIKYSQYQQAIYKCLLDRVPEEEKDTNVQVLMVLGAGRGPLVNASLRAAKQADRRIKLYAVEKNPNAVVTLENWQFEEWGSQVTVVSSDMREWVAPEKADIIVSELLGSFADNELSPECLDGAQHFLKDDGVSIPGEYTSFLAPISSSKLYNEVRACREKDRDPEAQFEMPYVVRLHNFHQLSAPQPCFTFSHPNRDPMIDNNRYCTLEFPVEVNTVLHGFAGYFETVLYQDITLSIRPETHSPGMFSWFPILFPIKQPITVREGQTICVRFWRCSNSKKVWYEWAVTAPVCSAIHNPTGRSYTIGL
T1 sequence (Q9BQA1 whole entry, chain 2 of 2): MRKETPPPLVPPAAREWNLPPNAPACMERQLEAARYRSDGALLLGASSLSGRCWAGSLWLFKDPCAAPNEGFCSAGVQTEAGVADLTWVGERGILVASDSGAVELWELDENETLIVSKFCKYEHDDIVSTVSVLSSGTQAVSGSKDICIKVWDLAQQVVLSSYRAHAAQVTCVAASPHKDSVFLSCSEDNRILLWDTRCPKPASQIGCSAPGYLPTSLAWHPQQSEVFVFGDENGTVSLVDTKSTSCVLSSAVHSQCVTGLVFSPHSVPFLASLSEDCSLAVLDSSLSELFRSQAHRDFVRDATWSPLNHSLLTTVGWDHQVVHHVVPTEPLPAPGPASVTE

Binder	Ki [2]	further results
VPGQFDDA[Gla] (also: FITC as in peptide 29) [linear peptide 40 (29 with Asp replaced by Gla)]	–	Kd [1]: 245 nM
SRVVPGQF[dA]DADSSD [peptide 2 (RioK1 PBM with D-Ala)]	4500 nM	–
B1	1800 nM	–
{FITC-AEEA}-SRVVP[Dap]QFDDADSSD-NH2 (lactam 6-9; not fully specified) [5]	–	Kd [3]: > 2000 nM
VPGQ[Phe(4-NO2)]DDAD (also: FITC as in peptide 29) [linear peptide 41 (29 with Phe replaced by Phe(4-NO2))]	–	Kd [1]: 232 nM
SRVVP[dA]QF[dA]DADSSD [peptide 3 (RioK1 PBM with D-Ala at 14 and 17)]	65000 nM	–
SRVVP[dA]QFDDADSSD [peptide 1 (RioK1 PBM with D-Ala)]	5100 nM	–
